Results taken from the nanobody polyreactivity screen of Harvey et al. (2022).

Test: yeast display, Sf9 membrane polyspecificity reagent, FACS + sequencing; frameworks hold sequencing errors
Outline: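 Genes from sorted yeast were amplified by colony PCR, read by MiSeq 2 × 250 sequencing and filtered on CDR length. These cells carried a synthetic nanobody library in Saccharomyces cerevisiae BJ5465 and were sorted by FACS into low and high (top ~1%) gates on anti-HA and streptavidin fluorescence. Polyreactivity is labelled according to the gate of origin.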

Question: Which “polyreactivity (PSR sort gate)” value does the source give for “QVQLVESGGGLVQAGGSLRLSCAASGSTFGANAMGWYRQAPGKEREFVAAISRSGVRTYYADSVKGRFTISRDNAKNTVYLKLNSLKPEDTAVYYCAADGYWWTYTRYDYWGQGTQVTVSS” here?
Answer: low polyreactivity

Question: With “QVQLVESGGGLVQAGGSLRLSCAASGFIFRYYAMGWYRQAPWKERELVASITRSGGRTYYADSVKGRFTISRDNAKNTVYLQMNSLKPEDTAVYYCAARHYRSEYEYDYWGQGTQVTVSS” as the sequence, how does the “polyreactivity (PSR sort gate)” value read?
Answer: high polyreactivity

Question: Which “polyreactivity (PSR sort gate)” value does the source give for “QVQLVESGGGLVQAGGSLRLSCADSGNTFKGYAMGWYRQAPGKERELVAAISWSGSSTYYADSVKGRFTISRDNAKNTVYLQMNSLKPEDTAVYYCAVTYRRFYYWGQGTQVTVSS” here?
Answer: high polyreactivity

Question: With “QVQLVESGGALVQAGGSLRLICAASGRTFQKYTMGWYRQAPGKERELVAAISKRGGSTYYADSVKGRFTISRDNAKNTVYLQMNSLKPEDTAVYYCATRVYRSAVSYDYWGQGTQVTVSS” as the sequence, how does the “polyreactivity (PSR sort gate)” value read?
Answer: high polyreactivity

Question: With “QVQLVESGGGLVQAGGSLRLSCAASGSIFSSYVMGWYRQAPGKERELVAAISRSGGSTYYADSVKGRFTISRDNAKNTVYLQMNSRKPEDTAFYYCAADWTRGSPGMDYWGQGTQVTVSS” as the sequence, how does the “polyreactivity (PSR sort gate)” value read?
Answer: high polyreactivity

Question: For “QVQLVESGGGLVHAGGSLRLSCAASGGTFSLNAMGWYRKAPGTERELVAAISKRSSTTYYADSVKGRFTISRDNAKNTVYLQMNSLKPEDTSVYYCAARVLRSRKPGRGYDYWGQGTQVTVSS”, which “polyreactivity (PSR sort gate)” value is on record?
Answer: high polyreactivity

Question: With “QVQLVESGGGLVQAGGSLRLSCAASGNIFANYAMGWYRQAPGKERELVAAIRWSASRTYYADSVKGRFTISRDNAKNTVYLQMNSLIPEDTAVYYCAATIYTFWDYYYDYWGQGTQVTVSS” as the sequence, how does the “polyreactivity (PSR sort gate)” value read?
Answer: high polyreactivity

Question: Which “polyreactivity (PSR sort gate)” value does the source give for “QVQLVESGGGLVQAGGSLRLSCAASGITFYKYTMGWYRQAPGKERELVAAISVRGGRTYYADSVKGRFTISRDNAKNTVYLQMNSLKPEDTAVYYCNRVPKDAYDYWGQGTQVTVSS” here?
Answer: high polyreactivity

Question: Which “polyreactivity (PSR sort gate)” value does the source give for “QVQLVESGGGLVQAGGSLRLICAASGSTYSVYAMVWYRQAPGKERELVATITWNGGRTYYADSVKGRFTISRDNAKNTVYLQMNSLKPEDTAVYYCAADGWTSIGGPDYQHDYWGQGTQVTVSS” here?
Answer: high polyreactivity

Question: For “QVQLVESGGGLVQAGGSLRLSCAASASIFYRNAMGWYRQAPGKERELVAGITTRGGSTYYADSVKGRFTISRDNAKNTVYLQMNSLNPEDTAVYYCNRRFPIYGSRFGYYYWGQGTQVTVSS”, which “polyreactivity (PSR sort gate)” value is on record?
Answer: high polyreactivity

Question: With “QVQLVESGVCLVQAGRSLPLSCAASGFTFDSNAMGWSRQAPGNESELVAAISASRDSTYYADSVKGRFTISRDNAKNTVYLQMNSLKPEETAVYYCAADSSDWPYDYWGQCTQVTVSS” as the sequence, how does the “polyreactivity (PSR sort gate)” value read?
Answer: low polyreactivity

Question: For “QVQLVESGGGLVQAGGSLRLSCAASGRTFFIYAMGWYRPAPGKERELVAAITYGGGRTFYADSVKGRFTISRDNAKYTVYLQMNSLKPEDTAVYYCAATVRGKRSTYDYWGQGTQVTVSS”, which “polyreactivity (PSR sort gate)” value is on record?
Answer: high polyreactivity

Question: With “QVQLVESGGGLVQAGGSLRLSCAASGRIFPRNTMGWYRQAPGKQRELVAAISTRGGSTYYADSVKGRFTISRDNAKNTVYLQMNSLKPEDTAVYYCAAGRRFPAIYSTGNYWGQGTQVTVSS” as the sequence, how does the “polyreactivity (PSR sort gate)” value read?
Answer: high polyreactivity

Question: With “QVQLVESGGGLVQAGGSLRLSCAASGSIFAANAMGWYRQAHGKERELVAAISWSGGYTYADSVKGRFTISRDNAKNTVYLQMKSLKPEDTAFYYCAADLWSQYKFGYWGQGTLVTVSS” as the sequence, how does the “polyreactivity (PSR sort gate)” value read?
Answer: low polyreactivity

Question: Which “polyreactivity (PSR sort gate)” value does the source give for “QVQLVESGGGFVQAGGSLRLSCAASGSIFVTYAKGWYRQAPGKERDLVAAIKYSGGSTYYADSVKGRFTISRDYAKNTVYLQMNSLKPEDTAVYYCAADERVDQGWIRMDYWGQGTQVTVSS” here?
Answer: low polyreactivity

Question: Which “polyreactivity (PSR sort gate)” value does the source give for “QVQLQESVGGLVLAGGSLRLICSASANISVYGTMGWYRKAPGKEREFVATIDPGTNTNYADSVKDRFTISRDNAKNTVYLQMNSLKPEDTAVYYCEVEGGSDWPYRYWGQGTQVTVSS” here?
Answer: low polyreactivity

Question: With “QVQLVESGGGLVQAGGSLRLSCAASGRILGSYAMGWYRQAPGKERELVAAISSGARTNYADSVKGRFTISRDHAKNTVYLQMNCLKPEDTAVYYCAAATYNQDYSYDYWGQGTQVTVSS” as the sequence, how does the “polyreactivity (PSR sort gate)” value read?
Answer: low polyreactivity

Question: For “QVQLVESGGGLVQAGGSLRLSCAASGFIFSRYAMGWSRQAPGKERELVAAIRFSGSITYYADSVKGRFTISRDNAKNTVYLQMNSLKPEDTAVYYCAAYRRYYGWYEYWGQGTQVTVSS”, which “polyreactivity (PSR sort gate)” value is on record?
Answer: high polyreactivity

Question: For “QVQLVESGGGLVQAGGSLRLSCAASGYIFLGYAMGWYRQAPGKERELVAAISSRGGSTYYADSVKGRFTISRDNAKNTVYLQMNSLKPEDTAVYYCAAYRFSDRAAYGYYDRHYYWGQGTQVTVSS”, which “polyreactivity (PSR sort gate)” value is on record?
Answer: high polyreactivity

Question: Which “polyreactivity (PSR sort gate)” value does the source give for “QVKLVESGGVLVQAGGSLRLSCAASAFTFRWYSMGWYRQATGKERELVARISWDGGSTYYADSVKGRFTISRDNAKNTVYVQMNSLKPEDTAVYYCAIDWYYLRRNYDYWGQGTQVTLSS” here?
Answer: high polyreactivity

Question: With “QVQLVESGGGLVQAGGSLRLSCAASGRIFRYYAMGWSRQAPGKERELVADISRRGGSTYYADSVKGRFTISRDNAKNTVYLQMNSLKPEDTAVYYCNARWYRTGSTYHEDYWGQGTQVTLSS” as the sequence, how does the “polyreactivity (PSR sort gate)” value read?
Answer: high polyreactivity

Question: Which “polyreactivity (PSR sort gate)” value does the source give for “QVQLVESGGGLGQAGASLRLSCAASGLTFRYYALGWYRQAPGKLMELVAAISSRGASTYYADSVKGRITISRDNAKNTVYLQMTSLKPEDTAVYYCAARYTGKYEREYNYWGQGTQVTVSS” here?
Answer: high polyreactivity
